Results from FireProtDB (doi:10.1038/s41598-020-57873-3).

B1: N142P|I144P|N377P|T404P, Q8GB52 (parent)
chain: MLKKVLSCCIAATFGIYSASSLAQSSVINSTENSQQPIAPLVLASSDDAITDRYIVVLKQPQMLMNDAAGLQQFTQQTVGLMANSFSIKTDDVFDSSIIGFVANLDALQLKQLRRDSRVEYIEQDQILSIDPVVSNEAVQSNAIWGLDRIDQRNLPLDRNYNANFDGFGVTAYVIDTGVNNNHEEFGGRSVSGYDFVDNDADSSDCNGHGTHVAGTIGGSQYGVAKNVNIVGVRVLSCSGSGTTSGVISGVDWVAQNASGPSVANMSLGGGQSTALDSAVQGAIQSGVSFMLAAGNSNADACNTSPARVPSGVTVGSTTSSDSRSSFSNWGSCVDLFAPGSQIKSAWYDGGYKTISGTSMATPHVAGVAALYLQENNGLTPLQLTGLLNSRASENKVSDTRGTTNKLLYSLADSGCEPDCGGPTPGPDPDGKLVSGVPVNGLSGSRGQKDYFYMDLQQGQQLTVVTIGGTGDADLYLRFGDKPTLNTWDCRPYRSGNSETCTVNVTQSGRYHVMLNAYSAYSGLTLQANF

Variants of: B1
Settings: Vibrio sp. PA-44, pH 8.6, Thermal, structure 1SH7, whole UniProt chain shown
[1] = CD, Glycine 25 mM, NaCl and CaCl2 100 mM and 15 mM
[2] = CD, glycine, Nacl / Cacl2 100000 / 15000, transition: 2, reversible: no
[3] = DSC, Glycine 25 mM, NaCl and CaCl2 100 mM and 15 mM
[4] = DSC, glycine, Nacl / Cacl2 100000 / 15000, transition: 2, reversible: no

Variant | Tm [1] | change of melting temperature, mutant - wild type (higher = more stable) [1] | Tm [2] | change of melting temperature, mutant - wild type (higher = more stable) [2] | Tm [3] | change of melting temperature, mutant - wild type (higher = more stable) [3] | unfolding enthalpy (calorimetric) [3] | Tm [4] | change of melting temperature, mutant - wild type (higher = more stable) [4] | unfolding enthalpy (calorimetric) [4]
N142P I144P N377P T404P | 72.1 °C | 10.2 °C | 72.1 °C | 10.2 °C | 77.2 °C | 13.3 °C | 164 kcal/mol | 77.2 °C | 13.3 °C | 163 kcal/mol
N142P I144P T404P | 69.2 °C | 7.3 °C | 69.2 °C | 7.3 °C | 73.6 °C | 9.7 °C | 167 kcal/mol | 73.6 °C | 9.7 °C | 166 kcal/mol
T404P | 61.6 °C | -0.3 °C | – | – | 64.5 °C | 0.6 °C | 108 kcal/mol | 64.5 °C | 0.6 °C | 108 kcal/mol
I144P | 65.1 °C | 3.2 °C | 65.1 °C | 3.2 °C | 65.7 °C | 1.8 °C | 137 kcal/mol | 65.7 °C | 1.8 °C | 136 kcal/mol
N377P | – | – | 60.7 °C | -1.2 °C | 63.6 °C | -0.3 °C | 133 kcal/mol | 63.6 °C | -0.3 °C | 133 kcal/mol
